Experimental data reported in PMC6894463, “Improved spectrophotometric assay for lytic polysaccharide monooxygenase” (Biotechnology for Biofuels, 2019).

Substrate: COc1cc(-c2cc(OC)c(O)c(OC)c2)cc(OC)c1O
Assay: purified protein
Type: biochemical, Neurospora crassa
Conditions: 100 µM H2O2 co-substrate, 50 mM sodium phosphate pH 6.0, apparent, no saturation reached

B1: NcLPMO9C (Neurospora crassa OR74A) (protein)
chain: HTIFQKVSVNGADQGQLKGIRAPANNNPVTDVMSSDIICNAVTMKDSNVLTVPAGAKVGHFWGHEIGGAAGPNDADNPIAASHKGPIMVYLAKVDNAATTGTSGLKWFKVAEAGLSNGKWAVDDLIANNGWSYFDMPTCIAPGQYLMRAELIALHNAGSQAGAQFYIGCAQINVTGGGSASPSNTVSFPGAYSASDPGILINIYGGSGKTDNGGKPYQIPGPALFTCPAGGSGGSSPAPATTASTPKPTSASAPKPVSTTASTPKPTNGSGSGTGAAHSTKCGGSKPAATTKASNPQPTNGGNSAVRAAALYGQCGGKGWTGPTSCASGTCKFSNDWYSQCLP
notes: full-length secreted enzyme, recombinant in Pichia pastoris X-33, purified
Km: 3.6 ± 0.5 mM
